Measured values reported in paper PMC8954794, “NMR Structure and Biophysical Characterization of Thermophilic Single-Stranded DNA Binding Protein from Sulfolobus Solfataricus”.

Biological target: T1, SsoSSB1-114 (Sulfolobus solfataricus, UniProt Q97W73 1-114)
T1 sequence: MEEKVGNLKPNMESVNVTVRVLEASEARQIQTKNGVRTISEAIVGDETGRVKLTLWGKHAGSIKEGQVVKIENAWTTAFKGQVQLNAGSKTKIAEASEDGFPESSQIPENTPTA
Assay: ITC; 25 C; n = 1.009; Buffer A: 100 mM NaCl, 20 mM MES pH 6.5; ITC at 25 C (500 uM dA15 into 50 uM protein); NMR with 10% D2O at 25 and 50 C (SsoSSB12-114 at 25 C only)
Settings: protein: recombinant; tags: C-terminal TEV-His6 vector; single strand

B1: dA(15) (ssDNA)
DNA: AAAAAAAAAAAAAAA
  Kd: 1750 nM
